From US20260209386A1 (MYTHIC THERAPEUTICS, published 2026)

T1: Human PTK7 Protein, His Tag, Acro Biosystems (human, UniProt Q13308 31-704)
T1 construct: Bought recombinant protein; also called CCK4; not shown: His tag
T1 sequence: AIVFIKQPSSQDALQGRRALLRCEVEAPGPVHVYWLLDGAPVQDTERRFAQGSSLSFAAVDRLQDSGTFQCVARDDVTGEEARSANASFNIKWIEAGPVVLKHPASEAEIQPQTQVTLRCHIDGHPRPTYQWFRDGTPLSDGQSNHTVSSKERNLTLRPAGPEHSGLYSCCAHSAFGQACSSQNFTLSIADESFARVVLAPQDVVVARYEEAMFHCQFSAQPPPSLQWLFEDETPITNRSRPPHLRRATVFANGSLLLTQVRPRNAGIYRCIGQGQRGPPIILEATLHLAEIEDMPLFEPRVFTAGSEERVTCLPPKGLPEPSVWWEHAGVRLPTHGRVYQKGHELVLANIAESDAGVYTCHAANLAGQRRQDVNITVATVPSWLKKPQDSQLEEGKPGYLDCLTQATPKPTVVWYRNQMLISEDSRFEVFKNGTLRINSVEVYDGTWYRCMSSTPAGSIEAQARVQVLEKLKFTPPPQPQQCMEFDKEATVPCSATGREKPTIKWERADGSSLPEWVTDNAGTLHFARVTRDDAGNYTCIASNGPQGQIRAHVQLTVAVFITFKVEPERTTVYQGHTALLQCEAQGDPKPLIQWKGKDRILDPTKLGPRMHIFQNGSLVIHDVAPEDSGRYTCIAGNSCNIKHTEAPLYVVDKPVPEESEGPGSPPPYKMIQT


Biological target: T1, Human PTK7 Protein, His Tag, Acro …
Assay: BLI (Octet), antibody on anti-human Fc sensor, 50 nM PTK7 at pH 7.4, dissociation at pH 7.4 or 5.4; 2 = substantially similar binding relative to parent

Binder	binding result
MYT10929 (antibody, V domains shown, MYT9345 variant, His at VL pos 34 (L1 11)) VH: EVQLVESGGGLVQPGGSLRLSCTASGFSLSNYVMNWVRQAPGKGLEWVGIIDSSGSTYYASWAKGRFTISRDTSKNTVYLQMNSLRAEDTAVYFCARGLYLWGQGTLVTVSS VL: EIVMTQSPSTLSASVGDRVIITCQSSQSVYNNNHLAWYQQKPGKAPKLLIYYTSNLASGVPSRFSGSGSGAEFTLTISSLQPDDFATYYCQGGYNGNIYAFGQGTKLTVL	binds
MYT10915 (antibody, V domains shown, MYT9345 variant, His at VH pos 100 (H3 05)) VH: EVQLVESGGGLVQPGGSLRLSCTASGFSLSNYVMNWVRQAPGKGLEWVGIIDSSGSTYYASWAKGRFTISRDTSKNTVYLQMNSLRAEDTAVYFCARGLHLWGQGTLVTVSS VL: EIVMTQSPSTLSASVGDRVIITCQSSQSVYNNNLLAWYQQKPGKAPKLLIYYTSNLASGVPSRFSGSGSGAEFTLTISSLQPDDFATYYCQGGYNGNIYAFGQGTKLTVL	binds
MYT10912 (antibody, V domains shown, MYT9345 variant, His at VH pos 97 (H3 02)) VH: EVQLVESGGGLVQPGGSLRLSCTASGFSLSNYVMNWVRQAPGKGLEWVGIIDSSGSTYYASWAKGRFTISRDTSKNTVYLQMNSLRAEDTAVYFCAHGLYLWGQGTLVTVSS VL: EIVMTQSPSTLSASVGDRVIITCQSSQSVYNNNLLAWYQQKPGKAPKLLIYYTSNLASGVPSRFSGSGSGAEFTLTISSLQPDDFATYYCQGGYNGNIYAFGQGTKLTVL	binds
MYT10921 (antibody, V domains shown, MYT9345 variant, His at VL pos 26 (L1 03)) VH: EVQLVESGGGLVQPGGSLRLSCTASGFSLSNYVMNWVRQAPGKGLEWVGIIDSSGSTYYASWAKGRFTISRDTSKNTVYLQMNSLRAEDTAVYFCARGLYLWGQGTLVTVSS VL: EIVMTQSPSTLSASVGDRVIITCQSHQSVYNNNLLAWYQQKPGKAPKLLIYYTSNLASGVPSRFSGSGSGAEFTLTISSLQPDDFATYYCQGGYNGNIYAFGQGTKLTVL	binds
MYT10934 (antibody, V domains shown, MYT9345 variant, His at VL pos 54 (L2 03)) VH: EVQLVESGGGLVQPGGSLRLSCTASGFSLSNYVMNWVRQAPGKGLEWVGIIDSSGSTYYASWAKGRFTISRDTSKNTVYLQMNSLRAEDTAVYFCARGLYLWGQGTLVTVSS VL: EIVMTQSPSTLSASVGDRVIITCQSSQSVYNNNLLAWYQQKPGKAPKLLIYYTHNLASGVPSRFSGSGSGAEFTLTISSLQPDDFATYYCQGGYNGNIYAFGQGTKLTVL	binds
MYT10910 (antibody, V domains shown, MYT9345 variant, His at VH pos 65 (H2 16)) VH: EVQLVESGGGLVQPGGSLRLSCTASGFSLSNYVMNWVRQAPGKGLEWVGIIDSSGSTYYASWAKHRFTISRDTSKNTVYLQMNSLRAEDTAVYFCARGLYLWGQGTLVTVSS VL: EIVMTQSPSTLSASVGDRVIITCQSSQSVYNNNLLAWYQQKPGKAPKLLIYYTSNLASGVPSRFSGSGSGAEFTLTISSLQPDDFATYYCQGGYNGNIYAFGQGTKLTVL	binds
MYT10923 (antibody, V domains shown, MYT9345 variant, His at VL pos 28 (L1 05)) VH: EVQLVESGGGLVQPGGSLRLSCTASGFSLSNYVMNWVRQAPGKGLEWVGIIDSSGSTYYASWAKGRFTISRDTSKNTVYLQMNSLRAEDTAVYFCARGLYLWGQGTLVTVSS VL: EIVMTQSPSTLSASVGDRVIITCQSSQHVYNNNLLAWYQQKPGKAPKLLIYYTSNLASGVPSRFSGSGSGAEFTLTISSLQPDDFATYYCQGGYNGNIYAFGQGTKLTVL	binds
MYT10922 (antibody, V domains shown, MYT9345 variant, His at VL pos 27 (L1 04)) VH: EVQLVESGGGLVQPGGSLRLSCTASGFSLSNYVMNWVRQAPGKGLEWVGIIDSSGSTYYASWAKGRFTISRDTSKNTVYLQMNSLRAEDTAVYFCARGLYLWGQGTLVTVSS VL: EIVMTQSPSTLSASVGDRVIITCQSSHSVYNNNLLAWYQQKPGKAPKLLIYYTSNLASGVPSRFSGSGSGAEFTLTISSLQPDDFATYYCQGGYNGNIYAFGQGTKLTVL	binds
MYT10932 (antibody, V domains shown, MYT9345 variant, His at VL pos 52 (L2 01)) VH: EVQLVESGGGLVQPGGSLRLSCTASGFSLSNYVMNWVRQAPGKGLEWVGIIDSSGSTYYASWAKGRFTISRDTSKNTVYLQMNSLRAEDTAVYFCARGLYLWGQGTLVTVSS VL: EIVMTQSPSTLSASVGDRVIITCQSSQSVYNNNLLAWYQQKPGKAPKLLIYHTSNLASGVPSRFSGSGSGAEFTLTISSLQPDDFATYYCQGGYNGNIYAFGQGTKLTVL	binds
MYT10931 (antibody, V domains shown, MYT9345 variant, His at VL pos 36 (L1 13)) VH: EVQLVESGGGLVQPGGSLRLSCTASGFSLSNYVMNWVRQAPGKGLEWVGIIDSSGSTYYASWAKGRFTISRDTSKNTVYLQMNSLRAEDTAVYFCARGLYLWGQGTLVTVSS VL: EIVMTQSPSTLSASVGDRVIITCQSSQSVYNNNLLHWYQQKPGKAPKLLIYYTSNLASGVPSRFSGSGSGAEFTLTISSLQPDDFATYYCQGGYNGNIYAFGQGTKLTVL	binds

Now from value to binder:

binding result	Binder
binds	MYT10909 (antibody, V domains shown, MYT9345 variant, His at VH pos 64 (H2 15)) VH: EVQLVESGGGLVQPGGSLRLSCTASGFSLSNYVMNWVRQAPGKGLEWVGIIDSSGSTYYASWAHGRFTISRDTSKNTVYLQMNSLRAEDTAVYFCARGLYLWGQGTLVTVSS VL: EIVMTQSPSTLSASVGDRVIITCQSSQSVYNNNLLAWYQQKPGKAPKLLIYYTSNLASGVPSRFSGSGSGAEFTLTISSLQPDDFATYYCQGGYNGNIYAFGQGTKLTVL
binds	MYT10914 (antibody, V domains shown, MYT9345 variant, His at VH pos 99 (H3 04)) VH: EVQLVESGGGLVQPGGSLRLSCTASGFSLSNYVMNWVRQAPGKGLEWVGIIDSSGSTYYASWAKGRFTISRDTSKNTVYLQMNSLRAEDTAVYFCARGHYLWGQGTLVTVSS VL: EIVMTQSPSTLSASVGDRVIITCQSSQSVYNNNLLAWYQQKPGKAPKLLIYYTSNLASGVPSRFSGSGSGAEFTLTISSLQPDDFATYYCQGGYNGNIYAFGQGTKLTVL
binds	MYT10924 (antibody, V domains shown, MYT9345 variant, His at VL pos 29 (L1 06)) VH: EVQLVESGGGLVQPGGSLRLSCTASGFSLSNYVMNWVRQAPGKGLEWVGIIDSSGSTYYASWAKGRFTISRDTSKNTVYLQMNSLRAEDTAVYFCARGLYLWGQGTLVTVSS VL: EIVMTQSPSTLSASVGDRVIITCQSSQSHYNNNLLAWYQQKPGKAPKLLIYYTSNLASGVPSRFSGSGSGAEFTLTISSLQPDDFATYYCQGGYNGNIYAFGQGTKLTVL
binds	MYT10919 (antibody, V domains shown, MYT9345 variant, His at VL pos 24 (L1 01)) VH: EVQLVESGGGLVQPGGSLRLSCTASGFSLSNYVMNWVRQAPGKGLEWVGIIDSSGSTYYASWAKGRFTISRDTSKNTVYLQMNSLRAEDTAVYFCARGLYLWGQGTLVTVSS VL: EIVMTQSPSTLSASVGDRVIITCHSSQSVYNNNLLAWYQQKPGKAPKLLIYYTSNLASGVPSRFSGSGSGAEFTLTISSLQPDDFATYYCQGGYNGNIYAFGQGTKLTVL
binds	MYT10933 (antibody, V domains shown, MYT9345 variant, His at VL pos 53 (L2 02)) VH: EVQLVESGGGLVQPGGSLRLSCTASGFSLSNYVMNWVRQAPGKGLEWVGIIDSSGSTYYASWAKGRFTISRDTSKNTVYLQMNSLRAEDTAVYFCARGLYLWGQGTLVTVSS VL: EIVMTQSPSTLSASVGDRVIITCQSSQSVYNNNLLAWYQQKPGKAPKLLIYYHSNLASGVPSRFSGSGSGAEFTLTISSLQPDDFATYYCQGGYNGNIYAFGQGTKLTVL
binds	MYT10938 (antibody, V domains shown, MYT9345 variant, His at VL pos 58 (L2 07)) VH: EVQLVESGGGLVQPGGSLRLSCTASGFSLSNYVMNWVRQAPGKGLEWVGIIDSSGSTYYASWAKGRFTISRDTSKNTVYLQMNSLRAEDTAVYFCARGLYLWGQGTLVTVSS VL: EIVMTQSPSTLSASVGDRVIITCQSSQSVYNNNLLAWYQQKPGKAPKLLIYYTSNLAHGVPSRFSGSGSGAEFTLTISSLQPDDFATYYCQGGYNGNIYAFGQGTKLTVL
